# In the supplement of paper PMC9112550, “Optimization of the antimicrobial peptide Bac7 by deep mutational scanning” (BMC Biology, 2022):
# System: Escherichia coli TOP10
# Test: shrunken log2 fold change of peptide-encoding DNA abundance (4.5 h post-induction vs induction); higher = less antimicrobial activity (less host growth inhibition)
# Conditions: time post-induction: 4.5 h; library: site-saturation at positions 5, 18, 19, 20
# 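Note: peptides expressed intracellularly from a pBAD plasmid library in pooled LB shake-flask culture, induced with 0.3% L-arabinose, DNA abundance read by NGS, three biological replicates, DESeq2 with apeglm shrinkage.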
row,Sequence,shrunken log2 fold change
1,RRIRKRPPRLPRPRPRPSHCPRP,-0.578
2,RRIRKRPPRLPRPRPRPSHYPRP,-0.248
3,RRIRKRPPRLPRPRPRPSIAPRP,0.00111
4,RRIRKRPPRLPRPRPRPSKGPRP,-0.0301
5,RRIRKRPPRLPRPRPRPSLPPRP,-0.0153
6,RRIRKRPPRLPRPRPRPSLQPRP,0.447
7,RRIRKRPPRLPRPRPRPSMRPRP,0.915
8,RRIRKRPPRLPRPRPRPSMSPRP,0.14
9,RRIRKRPPRLPRPRPRPSPWPRP,0.141
10,RRIRKRPPRLPRPRPRPSQLPRP,0.141
11,RRIRKRPPRLPRPRPRPSRIPRP,0.156
12,RRIRKRPPRLPRPRPRPSRRPRP,0.337
13,RRIRKRPPRLPRPRPRPSRWPRP,0.639
14,RRIRKRPPRLPRPRPRPSSEPRP,0.2
15,RRIRKRPPRLPRPRPRPSSHPRP,-0.163
16,RRIRKRPPRLPRPRPRPSSRPRP,-0.038
17,RRIRKRPPRLPRPRPRPSTVPRP,-0.159
18,RRIRKRPPRLPRPRPRPSVQPRP,0.0869
19,RRIRKRPPRLPRPRPRPSVTPRP,-0.0473
20,RRIRKRPPRLPRPRPRPSWFPRP,-0.168
21,RRIRKRPPRLPRPRPRPSWRPRP,0.211
22,RRIRKRPPRLPRPRPRPTAHPRP,0.513

row,Sequence,shrunken log2 fold change
1,RRIRKRPPRLPRPRPRPTCFPRP,0.259
2,RRIRKRPPRLPRPRPRPTCPPRP,0.0404
3,RRIRKRPPRLPRPRPRPTDEPRP,0.819
4,RRIRKRPPRLPRPRPRPTEGPRP,0.869
5,RRIRKRPPRLPRPRPRPTEKPRP,0.247
6,RRIRKRPPRLPRPRPRPTFIPRP,-0.0546
7,RRIRKRPPRLPRPRPRPTFTPRP,0.186
8,RRIRKRPPRLPRPRPRPTFYPRP,0.11
9,RRIRKRPPRLPRPRPRPTGKPRP,0.905
10,RRIRKRPPRLPRPRPRPTHNPRP,0.299
11,RRIRKRPPRLPRPRPRPTHSPRP,0.168
12,RRIRKRPPRLPRPRPRPTIPPRP,0.263
13,RRIRKRPPRLPRPRPRPTLKPRP,0.601
14,RRIRKRPPRLPRPRPRPTLNPRP,0.505
15,RRIRKRPPRLPRPRPRPTLRPRP,1.01
16,RRIRKRPPRLPRPRPRPTMEPRP,0.204
17,RRIRKRPPRLPRPRPRPTMWPRP,0.643
18,RRIRKRPPRLPRPRPRPTNHPRP,-0.0148
19,RRIRKRPPRLPRPRPRPTNIPRP,-0.188
20,RRIRKRPPRLPRPRPRPTPVPRP,0.756
21,RRIRKRPPRLPRPRPRPTQQPRP,1.35
22,RRIRKRPPRLPRPRPRPTQRPRP,1.13

row,Sequence,shrunken log2 fold change
1,RRIRKRPPRLPRPRPRPTRFPRP,0.436
2,RRIRKRPPRLPRPRPRPTSHPRP,0.37
3,RRIRKRPPRLPRPRPRPTVSPRP,0.099
4,RRIRKRPPRLPRPRPRPTYYPRP,-0.442
5,RRIRKRPPRLPRPRPRPVCVPRP,0.573
6,RRIRKRPPRLPRPRPRPVEAPRP,0.657
7,RRIRKRPPRLPRPRPRPVELPRP,0.111
8,RRIRKRPPRLPRPRPRPVGAPRP,0.853
9,RRIRKRPPRLPRPRPRPVGIPRP,0.131
10,RRIRKRPPRLPRPRPRPVGNPRP,0.0255
11,RRIRKRPPRLPRPRPRPVGVPRP,0.515
12,RRIRKRPPRLPRPRPRPVHFPRP,-0.0637
13,RRIRKRPPRLPRPRPRPVHWPRP,0.621
14,RRIRKRPPRLPRPRPRPVIIPRP,0.0356
15,RRIRKRPPRLPRPRPRPVINPRP,-0.0513
16,RRIRKRPPRLPRPRPRPVIQPRP,-0.0501
17,RRIRKRPPRLPRPRPRPVKKPRP,0.505
18,RRIRKRPPRLPRPRPRPVLSPRP,0.3
19,RRIRKRPPRLPRPRPRPVMLPRP,0.109
20,RRIRKRPPRLPRPRPRPVMTPRP,0.0351
21,RRIRKRPPRLPRPRPRPVNNPRP,-0.241
22,RRIRKRPPRLPRPRPRPVNVPRP,0.0147

row,Sequence,shrunken log2 fold change
1,RRIRKRPPRLPRPRPRPVPDPRP,0.418
2,RRIRKRPPRLPRPRPRPVPHPRP,0.189
3,RRIRKRPPRLPRPRPRPVRHPRP,0.0899
4,RRIRKRPPRLPRPRPRPVTLPRP,0.163
5,RRIRKRPPRLPRPRPRPVVEPRP,0.274
6,RRIRKRPPRLPRPRPRPVVKPRP,-0.0849
7,RRIRKRPPRLPRPRPRPVWVPRP,0.15
8,RRIRKRPPRLPRPRPRPVYEPRP,-0.115
9,RRIRKRPPRLPRPRPRPWCFPRP,0.164
10,RRIRKRPPRLPRPRPRPWCMPRP,0.183
11,RRIRKRPPRLPRPRPRPWDKPRP,-0.0876
12,RRIRKRPPRLPRPRPRPWDMPRP,0.142
13,RRIRKRPPRLPRPRPRPWIFPRP,0.287
14,RRIRKRPPRLPRPRPRPWISPRP,0.0313
15,RRIRKRPPRLPRPRPRPWIVPRP,-0.056
16,RRIRKRPPRLPRPRPRPWLCPRP,0.466
17,RRIRKRPPRLPRPRPRPWLPPRP,0.0665
18,RRIRKRPPRLPRPRPRPWMCPRP,-0.316
19,RRIRKRPPRLPRPRPRPWMDPRP,0.0169
20,RRIRKRPPRLPRPRPRPWMNPRP,-0.00146
21,RRIRKRPPRLPRPRPRPWNFPRP,-0.162
22,RRIRKRPPRLPRPRPRPWNKPRP,-0.129

row,Sequence,shrunken log2 fold change
1,RRIRKRPPRLPRPRPRPWNNPRP,0.0165
2,RRIRKRPPRLPRPRPRPWPLPRP,-0.0227
3,RRIRKRPPRLPRPRPRPWPNPRP,0.0221
4,RRIRKRPPRLPRPRPRPWPVPRP,0.47
5,RRIRKRPPRLPRPRPRPWPWPRP,0.847
6,RRIRKRPPRLPRPRPRPWQSPRP,0.0203
7,RRIRKRPPRLPRPRPRPWQTPRP,0.146
8,RRIRKRPPRLPRPRPRPWRQPRP,0.182
9,RRIRKRPPRLPRPRPRPWSPPRP,0.0668
10,RRIRKRPPRLPRPRPRPWTAPRP,0.00666
11,RRIRKRPPRLPRPRPRPWTEPRP,-0.172
12,RRIRKRPPRLPRPRPRPWVLPRP,0.0941
13,RRIRKRPPRLPRPRPRPWWIPRP,-0.0457
14,RRIRKRPPRLPRPRPRPWWKPRP,-0.103
15,RRIRKRPPRLPRPRPRPWWMPRP,0.105
16,RRIRKRPPRLPRPRPRPWWSPRP,-0.00415
17,RRIRKRPPRLPRPRPRPWWWPRP,-0.0108
18,RRIRKRPPRLPRPRPRPWYPPRP,0.00168
19,RRIRKRPPRLPRPRPRPWYWPRP,-0.151
20,RRIRKRPPRLPRPRPRPYAPPRP,-0.241
21,RRIRKRPPRLPRPRPRPYCDPRP,0.00748
